The text below walks through data of patent US20140274782A1, “AFFINITY REAGENTS AND METHODS FOR DETECTION, PURIFICATION, AND PROTEOMIC ANALYSIS OF METHYLATED PROTEINS” (The Board of Trustees of the Leland Stanford Junior …, priority 2013, published 2014).

Assay [1] deals with T1, G9a and GLP (Homo sapiens, UniProt Q96KQ7+Q9H9B1).
T1 construct: endogenous in cells; host or cells: HEK 293T
T1 sequence (Q96KQ7 2-1210 limits assumed): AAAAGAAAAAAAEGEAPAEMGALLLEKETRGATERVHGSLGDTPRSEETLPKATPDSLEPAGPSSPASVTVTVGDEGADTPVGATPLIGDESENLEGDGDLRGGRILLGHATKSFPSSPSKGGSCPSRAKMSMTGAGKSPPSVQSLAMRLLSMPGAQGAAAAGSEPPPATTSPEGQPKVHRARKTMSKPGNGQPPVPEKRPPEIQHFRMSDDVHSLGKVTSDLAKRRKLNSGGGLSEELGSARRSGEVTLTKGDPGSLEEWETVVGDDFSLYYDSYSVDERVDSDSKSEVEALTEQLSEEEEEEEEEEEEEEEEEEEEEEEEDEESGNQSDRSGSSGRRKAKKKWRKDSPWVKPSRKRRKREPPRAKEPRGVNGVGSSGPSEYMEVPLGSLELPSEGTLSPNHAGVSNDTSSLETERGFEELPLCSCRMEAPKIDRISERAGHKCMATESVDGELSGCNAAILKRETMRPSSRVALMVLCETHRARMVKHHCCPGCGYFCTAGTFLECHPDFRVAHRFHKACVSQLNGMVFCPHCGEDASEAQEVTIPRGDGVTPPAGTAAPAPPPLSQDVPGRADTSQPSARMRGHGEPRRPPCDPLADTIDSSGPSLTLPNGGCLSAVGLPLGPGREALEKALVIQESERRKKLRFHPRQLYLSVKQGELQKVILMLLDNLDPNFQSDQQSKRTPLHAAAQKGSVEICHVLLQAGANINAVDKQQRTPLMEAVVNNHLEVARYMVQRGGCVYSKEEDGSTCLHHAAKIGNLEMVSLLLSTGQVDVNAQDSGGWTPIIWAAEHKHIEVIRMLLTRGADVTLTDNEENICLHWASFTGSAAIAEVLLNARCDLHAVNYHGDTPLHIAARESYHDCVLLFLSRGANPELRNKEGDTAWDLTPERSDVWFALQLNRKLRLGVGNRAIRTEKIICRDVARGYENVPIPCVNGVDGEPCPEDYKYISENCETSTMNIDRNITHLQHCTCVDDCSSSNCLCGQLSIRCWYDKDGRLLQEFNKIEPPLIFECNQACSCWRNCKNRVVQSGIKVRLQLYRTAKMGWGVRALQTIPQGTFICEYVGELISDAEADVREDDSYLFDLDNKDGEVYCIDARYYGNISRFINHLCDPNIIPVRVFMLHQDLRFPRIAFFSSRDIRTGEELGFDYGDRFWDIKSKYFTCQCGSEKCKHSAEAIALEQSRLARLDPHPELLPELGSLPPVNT
T1 sequence (Q9H9B1 2-1298 limits assumed): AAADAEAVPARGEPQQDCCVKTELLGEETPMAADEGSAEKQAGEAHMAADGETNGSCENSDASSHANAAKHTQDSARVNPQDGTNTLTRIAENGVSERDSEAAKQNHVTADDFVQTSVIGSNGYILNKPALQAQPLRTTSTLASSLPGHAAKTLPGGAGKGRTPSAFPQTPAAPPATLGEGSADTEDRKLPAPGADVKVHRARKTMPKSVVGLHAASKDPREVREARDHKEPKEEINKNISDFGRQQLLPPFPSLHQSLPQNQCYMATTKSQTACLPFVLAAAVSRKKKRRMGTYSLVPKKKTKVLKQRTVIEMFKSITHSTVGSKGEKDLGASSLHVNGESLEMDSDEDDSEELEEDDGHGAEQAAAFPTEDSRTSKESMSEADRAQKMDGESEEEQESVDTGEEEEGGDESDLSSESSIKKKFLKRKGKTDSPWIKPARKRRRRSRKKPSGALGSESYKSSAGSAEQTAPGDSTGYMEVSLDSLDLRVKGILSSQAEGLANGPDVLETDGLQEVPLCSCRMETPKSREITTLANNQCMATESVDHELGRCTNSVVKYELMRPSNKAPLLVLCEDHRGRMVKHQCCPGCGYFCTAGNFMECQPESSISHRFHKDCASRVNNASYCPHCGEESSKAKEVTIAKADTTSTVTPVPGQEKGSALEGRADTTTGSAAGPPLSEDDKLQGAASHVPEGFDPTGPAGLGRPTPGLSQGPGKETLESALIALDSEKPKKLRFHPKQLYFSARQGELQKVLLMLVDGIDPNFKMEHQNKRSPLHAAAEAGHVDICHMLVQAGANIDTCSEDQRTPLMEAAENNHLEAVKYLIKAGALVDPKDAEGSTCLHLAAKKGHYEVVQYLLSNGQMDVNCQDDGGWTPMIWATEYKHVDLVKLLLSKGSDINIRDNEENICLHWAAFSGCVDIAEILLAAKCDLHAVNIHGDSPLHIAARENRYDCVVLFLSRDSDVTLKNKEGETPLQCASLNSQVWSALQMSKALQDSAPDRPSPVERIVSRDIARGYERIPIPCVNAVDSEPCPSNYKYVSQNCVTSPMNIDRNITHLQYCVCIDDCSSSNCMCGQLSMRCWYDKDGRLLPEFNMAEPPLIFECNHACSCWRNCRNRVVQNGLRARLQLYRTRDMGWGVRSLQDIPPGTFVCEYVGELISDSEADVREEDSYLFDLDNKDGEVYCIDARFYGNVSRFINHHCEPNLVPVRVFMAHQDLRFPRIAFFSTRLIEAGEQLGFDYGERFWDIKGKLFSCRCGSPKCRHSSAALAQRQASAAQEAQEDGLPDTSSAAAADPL
The assay is described as follows: Triple SILAC pull-down after UNC0638 treatment of 293T cells, DMSO/UNC0638 ratio of protein captured by 3×MBT.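 For all read-outs here: mass spectrometry (Q-Exactive) SILAC quantitation, DMSO/UNC0638 ratio computed after subtracting 3×MBTD355N mutant pull-down background, only proteins with at least twofold 3×MBT over mutant signal considered.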 The class given is cell-based. To be noted: for Relative to UNC0638 UNC Heavy: UNC0638 in heavy SILAC media; for Relative to UNC0638 UNC Light: UNC0638 in light SILAC media; for Relative to UNC0638 Average: average of UNC Light and UNC Heavy experiments.

The subject of assay [2] is 3×MBT domain of L3MBTL1. The assay can be described thus: Triple SILAC pull-down, 3xMBT/3xMBTD355N ratio (cytoplasmic, nuclear and chromatin fractions of 293T cells).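 For all read-outs here: proteins quantified with MaxQuant, requiring at least two unique peptides and quantification in both label directions, normalized to the mean of proteins from a digested loading control.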 As to conditions: for 3xMBT/D355N UNC Heavy: experiment with UNC0638 in heavy SILAC media; for 3xMBT/D355N UNC Light: experiment with UNC0638 in light SILAC media. The class given is binding, human.
[3] abbreviates: SILAC ratio DMSO/UNC0638 of protein pulled down with 3xMBT.
Setting [4] is: SILAC ratio, pull-down 3xMBT vs 3xMBTD355N.
The mark [5] stands for this setting: SILAC ratio DMSO relative to UNC0638, pull-down with 3xMBT, all values in log base 2.
Where [6] appears, read: SILAC ratio 3xMBT vs 3xMBTD355N pull-down, 293T cells, all values in log base 2.

On to FOCAD, for which, in assay [1] (setting [3]), the “Relative to UNC0638 UNC Heavy” value is 0.20 log base 2 and the “Relative to UNC0638 UNC Light” value is 0.20 log base 2. Further, the “Relative to UNC0638 Average” value in assay [1] was determined as 0.20 log base 2. Further, in assay [2] (setting [4]), the “3xMBT/D355N UNC Heavy” value is on record as 1.83 log base 2 and the “3xMBT/D355N UNC Light” value is reported as 2.73 log base 2.
For the substance MLLT4, in assay [1] (setting [5]), the “Relative to UNC0638 UNC Heavy” value is given as 0.16 log base 2 and the “Relative to UNC0638 UNC Light” value amounted to 0.04 log base 2. In addition, the “Relative to UNC0638 Average” value in assay [1] (all values in log base 2) worked out at 0.10 log base 2. For the same substance, in assay [2] (setting [6]), the “3xMBT/D355N UNC Heavy” value amounted to 3.31 log base 2 and the “3xMBT/D355N UNC Light” value stood at 2.39 log base 2.
For the substance CD3EAP, in assay [1] (setting [5]), the “Relative to UNC0638 UNC Heavy” value is −0.02 log base 2 and the “Relative to UNC0638 UNC Light” value came out at 0.01 log base 2. Besides, the “Relative to UNC0638 Average” value in assay [1] (all values in log base 2) was 0.00 log base 2. In addition, in assay [2] (setting [6]), the “3xMBT/D355N UNC Heavy” value came to 2.30 log base 2 and the “3xMBT/D355N UNC Light” value is 1.86 log base 2.
ZNF207: in assay [1] (setting [3]), the “Relative to UNC0638 UNC Heavy” value is 0.34 log base 2 and the “Relative to UNC0638 UNC Light” value is given as 0.09 log base 2. Moreover, the “Relative to UNC0638 Average” value in assay [1] was 0.21 log base 2. Also, in assay [2] (setting [4]), the “3xMBT/D355N UNC Heavy” value is 2.48 log base 2 and the “3xMBT/D355N UNC Light” value is 3.12 log base 2.
As for RFC4, in assay [1] (setting [3]), the “Relative to UNC0638 UNC Heavy” value amounted to 0.32 log base 2 and the “Relative to UNC0638 UNC Light” value is given as 0.26 log base 2. For the same substance, the “Relative to UNC0638 Average” value in assay [1] amounted to 0.29 log base 2. Also, in assay [2] (setting [4]), the “3xMBT/D355N UNC Heavy” value turned out to be 1.95 log base 2 and the “3xMBT/D355N UNC Light” value is reported as 1.80 log base 2.
In the case of MPG, in assay [1] (setting [3]), the “Relative to UNC0638 UNC Heavy” value came out at 0.52 log base 2 and the “Relative to UNC0638 UNC Light” value is given as −0.04 log base 2. The “Relative to UNC0638 Average” value in assay [1] came out at 0.24 log base 2. Also, in assay [2] (setting [4]), the “3xMBT/D355N UNC Heavy” value came out at 1.39 log base 2 and the “3xMBT/D355N UNC Light” value is recorded as 1.87 log base 2.
The matching figures for DIDO1: 0.00 log base 2, 0.37 log base 2, 0.18 log base 2, 1.35 log base 2 and 3.36 log base 2.
With “SWI/SNF-related matrix-associated actin-dependent regulator of chromatin subfamily A member 5”, in assay [1] (SILAC ratio of protein captured by 3xMBT, 293T cells treated 24 hours with UNC0638 at 2.5 μM or DMSO), the “Protein Ratios DMSO/UNC0638” value is on record as 1.3. For the same substance, the “Protein Ratios 3xMBT/D355N” value in assay [2] (SILAC ratio, pull-down by 3xMBT vs 3xMBTD355N, 293T cells) was determined as 5.8.
